Target: Expi293F human cell-derived and purified SARS-CoV-2 RBD (RBD296-531) (SARS-CoV-2), P0DTC2

Kd: 990 nM
Binder: GVCKYGEWCEIVEI (modifications not checked) [AMK-1057 (purified, PapB-modified 14 aa thioether-cyclized peptide)]

From patent US20230227508A1, “SPLIT INTEIN-BASED SELECTION FOR PEPTIDE BINDERS” (priority 2020, published 2023)
